From publication PMC8741891

Target: Escherichia coli heat-labile enterotoxin holotoxin (human enterotoxigenic strain PE0415), nicked and reduced (E. coli (human enterotoxigenic strain PE0415)) (UniProt P43530)
Assay: ELISA; […] (1 ug/mL) […] (20 ug/mL, […]) for 1 h at 37 C; […]

protein disulfide isomerase, reduced (from UniProt P07237 18-508) (enzyme)
percent of A1 released from the holotoxin by PDI: 7%
